FRAP half-recovery time (τ1/2) data for one substance are collected here from PMC10976963.

This experiment concerns the target actin of the cytoskeleton of living U2OS cells (human (endogenous in U2OS)) (UniProt P60709). Kind of experiment: FRAP; fluorescence recovery after photobleaching at lamellipodia of living U2OS cells expressing mEGFP-DARPins or mCherry-LifeAct, 37 °C, single-exponential fit.

For mCherry-LifeAct (peptide), the FRAP half-recovery time (τ1/2) at lamellipodia came to 0.47 s.
